The target in the test is human MADr3 (human). Nature of the test: cell-based or functional assay.

The record followed here is patent US20020025558A1.

With TGF-β receptor, the signal to noise ratio of 33P phosphorylation at 0.01 units of TGF-β receptor, MADr3 coated at 750 ng/well came out at 50 and the signal to noise ratio of 33P phosphorylation on MADr3-coated FlashPlate was above 10.
